B1: novel protein: Thrombin-inhibitory protein isolated from assassin bugs (Rhodnius prolixus); contains 103 amino acids of SEQ ID NO: 3, N-terminus SEQ ID NO: 1 (protein)
chain: EGGEPCACPHALHRVCGSDGETYSNPCTLNCAKFNGKPELVKVHDGPCEPDEDEDVCQECDGDEYKPVCGSDDITYDNNCRLECASISSSPGVELKHEGPCRT

How the values were obtained:
[1] = Determination of the isoelectric point by isoelectric focusing; format: physicochemical; conditions: Ampholine PAGplate pH 3.5-9.5, located by thrombin inhibition assay
Description: The determination was carried out with an LKB Multiphor 2117 (horizontal system) and an LKB 2103 power supply. Precast gels were employed (Pharmacia Ampholine PAGplate pH 3.5-9.5). The standard proteins employed were amyloglucosidase, pH 3.5; soybean trypsin inhibitor, pH 4.55; β-lactoglobulin A, pH 5.2; bovine carbonic anhydrase, pH 5.85; human carbonic anhydrase, pH 6.55; horse myoglobin, pH 6.85 and 7.35; lentil lectin, pH 8.15, 8.45, 8.65 and trypsinogen, pH 9.3.
Focusing conditions: 1500 volts, 30 watts. Buffers:
cathode 1M sodium hydroxide solution
The plates were prefocused for 30 minutes to produce a pH gradient. The samples were loaded onto filter disks which lay on the gel. Focusing was continued for 30 minutes, the filter disks were removed and, after a further 30 minutes, focusing was stopped. The gels were immediately cut into 2 mm slices and transferred into distilled water. The protein eluted out of the gel slices overnight. The location of the thrombin inhibitor was determined by a thrombin inhibition assay. The pH can also be determined directly using a pH electrode.

Thrombin [2] = assay: Binding to affinity column with immobilized thrombin; conditions: immobilized thrombin on Sepharose
Description: The combined active fractions were loaded onto an affinity column with immobilized thrombin (diameter 1.5 cm, height 6.5 cm, volume 11.5 ml, 60 ml/h). The column was prepared as in Example 3.
The column was equilibrated with 20 mM sodium phosphate pH 7.5. After the protein solution had been loaded onto the column it was washed with 10 column volumes of equilibration buffer until the absorption at 280 nm decreased to zero.
It was then washed with 0.5M NaCl, 20 mM sodium phosphate buffer pH 7.5. This removed non-specifically adsorbed material.
Protein specifically bound to thrombin was eluted with 0.1M glycine, 0.5M NaCl pH 2.8. The column was then immediately readjusted to pH 7.5 with phosphate buffer.
2 g of CNBr-activated Sepharose (Pharmacia) were washed with 200 ml of 1 mM HCl on a suction funnel. The gel was taken up in 100 mM NaHCO3, 500 mM NaCl pH 8.3 and immediately mixed with 10,000 units of thrombin (Sigma) in 100 mM NaHCO3, 500 mM NaCl, pH 8.3.
The solution was gently shaken at 4° C. for 24 hours.
The gel material was allowed to settle and then washed with 100 mM NaHCO3, 500 mM NaCl, pH 8.3. The Sepharose was then incubated with 100 mM NaHCO3, 500 mM NaCl, 1M ethanolamine pH 8.3 for 2 hours.
To remove unbound thrombin, before use the gel material is washed once more in the column with 20 column volumes of PBS pH 7.4.

Thrombin [3] = assay: Determination of the inhibition of thrombin by the inhibitor (Chromozym TH optical assay); format: biochemical; conditions: in vitro enzyme assay
Description: The purification of the protein can be monitored by a thrombin activity assay. It is expedient to use an optical assay in which a chromogenic substrate, for example Chromozym T, is converted by thrombin. The fractions containing the novel protein can be identified by their thrombin-inhibiting action on addition to this optical assay.
Thrombin (Boehringer Mannheim) was dissolved to a final concentration of 25 mU/ml in phosphate-buffered saline (PBS) ([…], […], 0.144 g/l sodium phosphate, 0.2 g/l potassium phosphate, pH 7.5).
Chromozym TH (Boehringer Mannheim) was dissolved in 20 ml of H2 O per vial.
50 μl of thrombin solution and 100 μl of Chromozym plus 25 μl of sample or buffer were placed in the wells of a microtiter plate. The absorption at 405 nm was measured at 37° C. immediately thereafter at time 0 and after 30 minutes.
When the sample was deeply colored another control without thrombin was treated as described above.
The activity of thrombin liberates a dye which absorbs at 405 nm from the chromogenic substrate. Inhibition of the thrombin by a thrombin inhibitor is evident from a smaller increase in the absorption at 405 nm and was quantified using a calibration plot.

Molecule	isoelectric point [1]	binding to thrombin affinity column (Thrombin [2])	isoelectric point ([1]; listed as novel inhibitor) [pH]	inhibition of the biological activity of thrombin (Thrombin [3])
hirudin [reference compound]	≤ 3.5 pH			
B1	3.7-4.7 pH	binds specifically to a thrombin affinity column	4.2±0.5	inhibits the biological activity of thrombin
